Assay results as given in PMC5472405, “Epithelial chemokine CXCL14 synergizes with CXCL12 via allosteric modulation of CXCR4” (The FASEB Journal, 2017).

B1: CXC chemokine receptor 4 (CXCR4) on lentiviral particles (receptor, UniProt P61073 1-352, looked up)
chain: MEGISIYTSDNYTEEMGSGDYDSMKEPCFREENANFNKIFLPTIYSIIFLTGIVGNGLVILVMGYQKKLRSMTDKYRLHLSVADLLFVITLPFWAVDAVANWYFGNFLCKAVHVIYTVNLYSSVLILAFISLDRYLAIVHATNSQRPRKLLAEKVVYVGVWIPALLLTIPDFIFANVSEADDRYICDRFYPNDLWVVVFQFQHIMVGLILPGIVILSCYCIIISKLSHSKGHQKRKALKTTVILILAFFACWLPYYIGISIDSFILLEIIKQGCEFENTVHKWISITEALAFFHCCLNPILYAFLGAKFKTSAQHALTSVSRGSSLKILSKGKRGGHSSVSTESESSSFHSS
notes: also called CXCR4-expressing LVPs

Key:
[1] = target: T1, full-length CXCL12α, synthetic (human, UniProt P48061-2 22-89); assay: SPR; CXCR4 lentiviral particles (8000-8500 RU) immobilised on a CM5 chip; CXCL12 or CXCL14 12.5-200 nM injected in HBS (100 mM HEPES, 150 mM NaCl, 0.005% P20, pH 7.4), 30 ul/min, 25°C; reference: particles from CXCR4-negative cells or none; simple 1-site model; Biacore 3000; conditions: one partner purified
T1 construct: also called CXC chemokine ligand 12; source: chemically synthesized

[2] = target: B1; assay: cell-based or functional assay
[3] = target: B1; assay: SPR; CXCR4 lentiviral particles (8000-8500 RU) immobilised on a CM5 chip; CXCL12 or CXCL14 12.5-200 nM injected in HBS (100 mM HEPES, 150 mM NaCl, 0.005% P20, pH 7.4), 30 ul/min, 25°C; reference: particles from CXCR4-negative cells or none; simple 1-site model; Biacore 3000; conditions: one partner purified

T1 sequence (P48061 22-89): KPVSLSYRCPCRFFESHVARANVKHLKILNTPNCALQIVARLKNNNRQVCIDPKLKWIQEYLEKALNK

| Binder | Kd [1] [nM] | koff [1] [s⁻¹] | kon [1] [M⁻¹ s⁻¹] | entry of R5-tropic HIV-1 (pR8Bal) into TZM-bl cells (luciferase reporter), 0-1000 nM CXCL14 [2] [fold] | entry of X4 HIV-1 (pNL4.3) into TZM-bl cells (luciferase reporter), 10-1000 nM CXCL14 alone [2] [fold] | Kd [3] [nM] | koff [3] [s⁻¹] | kon [3] [M⁻¹ s⁻¹] |
| --- | --- | --- | --- | --- | --- | --- | --- | --- |
| B1 | 35 | 0.00428 | 122000 |  |  |  |  |  |
| CXC chemokine ligand 14 (CXCL14), synthetic (ligand, human, UniProt O95715 35-111, looked up, source: chemically synthesized) SKCKCSRKGPKIRYSDVKKLEMKPKYPHCEEKMVIITTKSVSRYRGQEHCLHPKLQSTKRFIKWYNAWNEKRRVYEE |  |  |  | > 3 | > 3 | 8 | 0.00317 | 396000 |
